B1: CPEB3 Ribozyme (parent)
chain: GGGGGCCACAGCAGAAGCGUUCACGUCGCGGCCCCUGUCAGAUUCUGGUGAAUCUGCGAAUUCUGCUGU

In the data set the parent is B1. The data set is described as follows: self-cleavage, relative activity (ratio to wild type); higher = more cleavage; co-transcriptional.
A42U U53A: the self-cleavage was 1.02. To A42U U53G belongs 1. With U43G U55G the figure was 0.264; with U43G U55A, 0.486. To U43A U61C belongs 0.334. A42G U69G: the self-cleavage turned out to be 1.03. With A42G U69C the figure was 1.04. With A42G U53A the figure was 0.895. To A42G U53G belongs 0.801; to U43G G65U, 0.352.

For U43G G65C, the self-cleavage was determined as 0.432. With A42C U44G the figure was 0.816.

With A42C U44C, the self-cleavage amounted to 0.736. For U43A G50U, the self-cleavage worked out at 0.959. To U43A G50C belongs 0.91; to U43A G50A, 0.962. To A42U G50C belongs 0.809; to A42U G50U, 0.937; to U43G G50U, 0.952.

In the case of U43G G50A, the self-cleavage is 0.938. To U44A G50C belongs 1; to U44A G50U, 0.984; to U44A U49G, 0.993.

With U44A U49A, the self-cleavage came out at 1.02.

For A42C U67A, the self-cleavage is 0.964. With A42C U67C the figure was 0.97; with A42U C66A, 0.461; with A42U C66U, 0.876. A42G G50U: the self-cleavage came to 0.887.

U44A U46A: the self-cleavage is 0.99. To U43G A60C belongs 0.498; to U43G A60U, 0.419; to U43G A60G, 0.556. To U43G C66U belongs 0.794; to U43G C66A, 0.319.

Consider U43C G48U, for which the self-cleavage was found to be 0.998.

As for U43C G48C, the self-cleavage worked out at 1. With U43G U53A, the self-cleavage is 0.8. For the variant U43G U53G, the self-cleavage came out at 0.854. With A42U U69C the figure was 1.04; with A42U U69A, 1. To A42C U69C belongs 1.05; to A42C U69A, 1.02; to A42C U69G, 1.01.

U44A G58C: the self-cleavage came to 1.01. To U44A U61A belongs 0.843; to U44A U61C, 0.662. Turning to U43G G56C, the self-cleavage was 0.329.

Regarding U43G G56A, the self-cleavage was 0.481. With U44A C63A the figure was 0.731. With U44A U67C the figure was 0.973; with U44A U67A, 0.936. Turning to U44A U67G, the self-cleavage was found to be 0.984. To U44A U55A belongs 0.566; to U44A U55C, 0.496; to A42U U46C, 0.781. With U44C A52C, the self-cleavage is 0.95.

Regarding A42U G48C, the self-cleavage was determined as 0.947. With A42U G48A the figure was 0.968; with A42G A51C, 0.672.

Regarding A42G A51U, the self-cleavage was 0.799. With U43C C54G the figure was 0.585; with U43C C54U, 0.905. With U43C G65C the figure was 0.567. Take U43G A59C: the self-cleavage turned out to be 0.513.

For U43G A59U, the self-cleavage is 0.566. As to U43G A59G, the self-cleavage amounted to 0.836. With A42U U62G the figure was 0.738; with A42U U62C, 0.721. With A42U U62A the figure was 0.809; with U43C A59G, 1.02; with U43C A59U, 0.68.

On to U43C A59C, for which the self-cleavage worked out at 0.652.

A42U C57U: the self-cleavage was 0.436. To U43C G58A belongs 0.943. To U43C G58U belongs 0.975.

With U43C G68U, the self-cleavage was 1.

For the variant U43G G47C, the self-cleavage was determined as 0.936. With U43G U46C, the self-cleavage turned out to be 0.677. To U43G U46G belongs 0.915. To U43C G50A belongs 0.956; to U43G G68A, 0.948.

Regarding U43G G68U, the self-cleavage turned out to be 0.901. To A42G C63A belongs 0.617. To A42G C63G belongs 0.583; to A42G C63U, 0.889. To U43C C45U belongs 1.01; to A42G A52C, 0.854. A42G A52U: the self-cleavage stood at 0.718. With U43C U49C the figure was 0.984; with U43A G65A, 0.49. For U43A G65U, the self-cleavage came out at 0.392. U43A G65C: the self-cleavage was found to be 0.349. To A42U U67A belongs 0.95; to A42U U67G, 0.951. With U44C the figure was 0.957. With U44A, the self-cleavage came to 0.983. To A42U U44A belongs 0.898. With U43A G48U, the self-cleavage was found to be 0.983.

Take U43A G48A: the self-cleavage turned out to be 1.04. To U43C C57A belongs 0.298; to U43C C57G, 0.308; to A42G G65U, 0.605. For A42G G65A, the self-cleavage came out at 0.639. To A42G G65C belongs 0.508; to U44A U64G, 0.8. With U44A U64A the figure was 0.843; with U43A C57U, 0.41; with U43A C57A, 0.271. To U44A A60C belongs 0.423; to U44A A60U, 0.353; to A42G U49G, 0.96. For the variant A42G U49A, the self-cleavage is 0.938. With A42G U49C the figure was 0.901; with U44A C57A, 0.383. To U44A C57G belongs 0.365.

In the case of U44A C57U, the self-cleavage was 0.397.

Regarding U43G A51U, the self-cleavage turned out to be 0.934. To U43G A51C belongs 0.941; to U43G A51G, 0.901.

As to U44A A51U, the self-cleavage came to 0.998. To U44A U62G belongs 0.685; to U44A U62C, 0.774. Turning to U43A U55A, the self-cleavage amounted to 0.257. To A42G U46G belongs 0.941.

For A42G U46A, the self-cleavage is 0.935. To U44A A52U belongs 0.969.

Consider U43A U46C, for which the self-cleavage turned out to be 0.952.

For U43A U46G, the self-cleavage was found to be 0.943. Regarding U43A U46A, the self-cleavage worked out at 0.958. With U43C U53A the figure was 0.92. To U44A G68A belongs 0.964; to U44A G68C, 1.01.

U44A G68U: the self-cleavage turned out to be 0.981. For the variant U43G U49G, the self-cleavage came to 0.922. With U43G U49C the figure was 0.815; with U43G U49A, 0.963; with U43C G56C, 0.494. To U43C G56A belongs 0.861.

Regarding A42U A51U, the self-cleavage is 0.914. To A42U A51C belongs 0.839; to A42G G58C, 0.894. With A42G G58A the figure was 0.951. To U43A G68C belongs 1.01; to U43A G68U, 0.973; to A42U A52U, 0.986. On to A42U A52C, for which the self-cleavage came out at 0.945. To A42U A52G belongs 0.88. With U44A G47C the figure was 0.93. To U43C A60U belongs 0.415; to U43C A60C, 0.227. Regarding U43C A60G, the self-cleavage was determined as 0.798. With U43A C45A the figure was 0.859. With U43A C45U the figure was 1.03; with U43C U44C, 0.937. With U43C U44A the figure was 1.02; with A42G C45U, 0.927. On to A42G C45A, for which the self-cleavage worked out at 1.01.

In the case of A42U G56A, the self-cleavage was 0.799.

Regarding A42U G56U, the self-cleavage amounted to 0.517. To U43G C63G belongs 0.446; to U44A U69C, 1.05; to U44A U69A, 0.956. With U44A U69G the figure was 1.02; with A42U U61G, 0.448; with A42U U61A, 0.744.

As for A42G U61G, the self-cleavage worked out at 0.359.

Source of the values: the RNAGym collection of RNA variant scans (doi:10.7554/elife.80360).
